The results in this text go back to the supplement of paper PMC11780869.

This data set concerns Bacillus subtilis. The experiment in a line: cleaved RNA product abundance (RNA/gDNA barcode ratio) relative to median wild-type variant (ratio to wild type); higher = more accumulation of the downstream cleavage product. On the procedure: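 MPRA in B. subtilis. Mutagenized RNase Y cleavage-site regions (9% mutation rate) were inserted into a barcoded reporter mRNA (truncated aprE or tetM). Cells were grown in LB at 37°C to OD600 0.3. The cleaved RNA isoform was gel-purified and its barcodes counted; the RNA:gDNA barcode ratio was normalised to the median wild-type variant, and the median over barcodes is reported per variant. The printed sequence is the variable window only; the reporter flanks are not printed.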

Where [1] appears, read: experiment (reporter, strain, medium): exp 2b: truncated aprE reporter, strain BJT200, cleavage site: cggR-gapA (positions -7 to +36 mutated).
Where [2] appears, read: experiment (reporter, strain, medium): exp 8a: truncated aprE reporter, strain BJT201 with 2% xylose (RNase J1 expressed), cleavage site: glnRA (positions -5 to +31 mutated).
Setting [3] is: experiment (reporter, strain, medium): exp 4a: truncated aprE reporter, strain BJT201 with 2% xylose (RNase J1 expressed), cleavage site: cggR-gapA (positions -7 to +36 mutated).
The mark [4] stands for this setting: experiment (reporter, strain, medium): exp 6: tetM reporter, strain 168, cleavage site: cggR-gapA (positions -7 to +36 mutated).

As to “ACAGACGAAGGAGCCGCAAAGAAGTTATTAAGGGATCAATAATCCCTCAATTTAAATATCTCTCACTTATTTAAA”, under setting [1], the “cleaved RNA product abundance” value was 0.197.

Turning to “CGACATGTCCCGCTTCTTTCATTAATCTGTTAGCAACTGTTTTGCTATATACAATTACCTTTTAAGAGGAGGAAT”, the “cleaved RNA product abundance” value under setting [2] was found to be 0.89.

Consider “CGACATGTCCCGCTTCTTTCATTAATCCGTTAGCAACTGTTTTGCTATATACAATAACCTTTTAAGAGGAGGAAT”, for which the “cleaved RNA product abundance” value under setting [2] came out at 0.855.

As for “CGACATGTCCCGCTTCTTTCATTATTCCGTTAGCACCTGTTTTGCTATATACATTTACCTTTTAAGAGGAGGAAT”, the “cleaved RNA product abundance” value under setting [2] was 1.18.

As for “ACAGACGAAGGAGCCGCAAAAAAGTTATTAAGGGATGACTAATCCCTCAATATAAATATCTCTCACTTATTTAAA”, the “cleaved RNA product abundance” value under setting [1] came out at 0.504 and the “cleaved RNA product abundance” value under setting [3] is 0.61.

As for “ACAGACGAAGGAGCCGCAAACAAGTTATTAAATGATGAATAATCCCTCAATATAAATATCTCTCACTTATTTAAA”, the “cleaved RNA product abundance” value under setting [3] came to 0.101.

For “CGACATGTCCCGCTTCTTTCATTATTCCGTTTTCAACTGTTTTGCTATATACATTTACCTTTTAAGAGGAGGAAT”, under setting [2], the “cleaved RNA product abundance” value is 0.361.

Turning to “ACAGACGAAGGAGCCGCGAAGTAGTTATTAAGGGATGAATAATCCCTCAATATAAATATCTCTCACTTATTTAAA”, under setting [3], the “cleaved RNA product abundance” value was found to be 1.29.

On to “ACAGACGAAGGAGCCGCAAAGAAGTTACTAAGGGATGAATAATCCCTCAATATAAATATCTCTCACTTATTTAAA”, for which the “cleaved RNA product abundance” value reads like this: under setting [1], 0.219; under setting [3], 0.314; under setting [4], 0.275.

For “CGACATGTCCCGCTTCTTTCATTAATCCGTTACCAACTGTTTTGCTATATACATTTCCCTTTTAAGAGGAGGAAT”, the “cleaved RNA product abundance” value under setting [2] worked out at 0.127.

Turning to “CGACATGTCCCGCTTCTTTCATTAATCAGTTAGAAACTGTTTTGCTATATACATTTACCTTTTAAGAGGAGGAAT”, the “cleaved RNA product abundance” value under setting [2] is 0.328.

Consider “ACAGACGAAGGAGCCGCAAAGAAGTTATTAAGTGATGAATAATCCCTCAATATAAATATCTCTCACTTATTTAAA”, for which the “cleaved RNA product abundance” value under setting [1] is 0.109, the “cleaved RNA product abundance” value under setting [3] was 0.126 and the “cleaved RNA product abundance” value under setting [4] was found to be 0.127.

Consider “ACAGACGAAGGAGCCGCAAAGTAGTTTTTAAGGGATGAATAATCCCTCAATATAAATATCTCTCACTTATTTAAA”, for which the “cleaved RNA product abundance” value under setting [3] was determined as 0.37.

Take “ACAGACGAAGGAGCCGCAAAAAAGTTATTAAGGAATGAACAATCCCTCAATATAAATATCTCTCACTTATTTAAA”: the “cleaved RNA product abundance” value under setting [3] worked out at 0.182.

For “ACAGACGAAGGAGCCGCAAAGAAGTTATAAAGGGATGAATTATCCCTCAATATAAATATCTCTCACTTATTTAAA”, the “cleaved RNA product abundance” value under setting [1] was 0.279 and the “cleaved RNA product abundance” value under setting [3] turned out to be 0.469.

For “CGACATGTCCCGCTTCTTTCATTACGCCGTTAGCAACTGTTTTGCTATATACATTTACCTTTTAAGAGGAGGAAT”, the “cleaved RNA product abundance” value under setting [2] came to 1.03.

In the case of “ACAGACGAAGGAGCCGCAGAAAAGTTATTAAGGGATGAATAATCCCTCAATATAAATATCTCTCACTTATTTAAA”, the “cleaved RNA product abundance” value is 1.14 under setting [1] and 1.24 under setting [3].

On to “ACAGACGAAGGAGCCGCTAAGAAGTTATTAAGGGATGAATAAACCCTCAATATAAATATCTCTCACTTATTTAAA”, for which the “cleaved RNA product abundance” value is, setting by setting: under setting [1], 0.537; under setting [3], 0.689.

With “CGACATGTCCCGCTTCTTTCATTAACCCGTTAGCAACTGTTTTGCCATATACATTTACCTTTTAAGAGGAGGAAT”, the “cleaved RNA product abundance” value under setting [2] stood at 0.158.

On to “ACAGACGAAGGAGCCGCAAAGAAGTCATTAATGGATGAATAATCCCTCAATATAAATATCTCTCACTTATTTAAA”, for which the “cleaved RNA product abundance” value is, setting by setting: under setting [1], 0.0927; under setting [3], 0.171.

As to “ACAGACGAAGGAGCCGCAAAGAAGTTATTAAGGGATGAAGAATCCATCAATATAAATATCTCTCACTTATTTAAA”, under setting [1], the “cleaved RNA product abundance” value is 0.124.

Take “ACAGACGAAGGAGCCGCAAAGAAGTTATTGAGGGATGAATACTCCCTCAATATAAATATCTCTCACTTATTTAAA”: under setting [3], the “cleaved RNA product abundance” value stood at 0.0909.

On to “CGACATGTCCCGCTTCTTTCATTAATCCGTTTGAAACTGTTTTGCTATATACATTTACCTTTTAAGAGGAGGAAT”, for which the “cleaved RNA product abundance” value under setting [2] turned out to be 0.388.

Turning to “CGACATGTCCCGCTTCTTTCATTATTCCGTTAGCAACTGTTTTGCTATATAGATTTAACTTTTAAGAGGAGGAAT”, the “cleaved RNA product abundance” value under setting [2] was 0.911.

Take “ACAGACGAAGGAGCCGCAAAGAAGTTATTAAGCGATGAATAATCCCTCAATAGAAATATCTCTCACTTATTTAAA”: the “cleaved RNA product abundance” value was 0.0778 under setting [1] and 0.0613 under setting [3].

Regarding “ACAGACGAAGGAGCCGCAAAGAAGATATTAAGGGATGAATAATCCGTCAATATAAATATCTCTCACTTATTTAAA”, under setting [3], the “cleaved RNA product abundance” value stood at 0.239.

In the case of “ACAGACGAAGGAGCCGCAAACAAGTTATTAAGGGATGAATAATCCCTGAATATAAATATCTCTCACTTATTTAAA”, the “cleaved RNA product abundance” value under setting [3] worked out at 0.455.

With “ACAGACGAAGGAGCCGCAAAGAAGTTATTAAGGGATGAATAATCCATCAATATAAATAACTCTCACTTATTTAAA”, the “cleaved RNA product abundance” value under setting [3] was determined as 0.185.

Regarding “CGACATGTCCCGCTTCTTTCATTAATCCATTAGCAGCTGTTTTGCTATATACATTTACCTTTTAAGAGGAGGAAT”, the “cleaved RNA product abundance” value under setting [2] turned out to be 0.324.

Take “ACAGACGAAGGAGCCGCAAAGAAATTATTAAGGGATGAATAATCCCTCAATATAAATATATCTCACTTATTTAAA”: the “cleaved RNA product abundance” value under setting [3] is 1.19.

Regarding “ACAGACGAAGGAGCCGCAATGAAGTTATTAAGGGATGAATAATCCCTCAATATGAATATCTCTCACTTATTTAAA”, under setting [3], the “cleaved RNA product abundance” value is 0.141.

“ACAGACGAAGGAGCCGCAAAGAAGTTATTAAGGGATGAATAATCCATGAATATAAATATCTCTCACTTATTTAAA”: the “cleaved RNA product abundance” value under setting [3] was 0.18.

Consider “ACAGACGAAGGAGCCGCAAAGAAATTATTAAGGGATGAATGATCCCTCAATATAAATATCTCTCACTTATTTAAA”, for which, under setting [3], the “cleaved RNA product abundance” value is 0.661.

In the case of “CGACATGTCCCGCTTCTTTCATTAATCCGTGAGCAACTGTTTTGCTATATACATTTACCATTTAAGAGGAGGAAT”, the “cleaved RNA product abundance” value under setting [2] was determined as 0.655.

In the case of “CGACATGTCCCGCTTCTTTCATTAATCCGTTACCAACTGTTTTGCTATATAGATTTACCTTTTAAGAGGAGGAAT”, under setting [2], the “cleaved RNA product abundance” value stood at 0.226.

For the sequence “CGACATGTCCCGCTTCTTTCATTAATCCGTTAGCAACTGTTTTGCCATATACATTTAACTTTTAAGAGGAGGAAT”, the “cleaved RNA product abundance” value under setting [2] came to 0.406.

Take “ACAGACGAAGGAGCCGCAAAGAAGTTATTAAGAGATGAATAATCCCTCAATATACATATCTCTCACTTATTTAAA”: the “cleaved RNA product abundance” value turned out to be 0.102 under setting [1] and 0.136 under setting [3].

With “CGACATGTCCCGCTTCTTTCATTAAACCGTTAGCAACTGTTTTGCTATATAGATTTACCTTTTAAGAGGAGGAAT”, under setting [2], the “cleaved RNA product abundance” value was 1.35.

“CGACATGTCCCGCTTCTTTCATTAATCCGTTAGCATCTCTTTTGCTATATACATTTACCTTTTAAGAGGAGGAAT”: under setting [2], the “cleaved RNA product abundance” value came out at 0.59.

Take “ACAGACGAAGGAGCCGCAAAGAAGTCATTAAGGCATGAATAATCCCTCAATATAAATATCTCTCACTTATTTAAA”: the “cleaved RNA product abundance” value under setting [3] was 0.102.

In the case of “CGACATGTCCCGCTTCTTTCATTAATCCGTTGGCAACTGTTTAGCTATATACATTTACCTTTTAAGAGGAGGAAT”, the “cleaved RNA product abundance” value under setting [2] turned out to be 0.38.

Consider “ACAGACGAAGGAGCCGCAAAGAAGTTATTAAGGGATGAATAATCCCTCAATATAAATATATCTCACTTATTTAAA”, for which the “cleaved RNA product abundance” value under setting [1] was determined as 0.976 and the “cleaved RNA product abundance” value under setting [3] was determined as 1.02.

As for “CGACATGTCCCGCTTCTTTCATTAATCCGTTAGCAACTGTTTTGCTATATTAATTTACCTTTTAAGAGGAGGAAT”, the “cleaved RNA product abundance” value under setting [2] worked out at 0.236.

Consider “ACAGACGAAGGAGCCGCAAAGAAGTTATTAAAGGATGAATAATCCCTCAATATAAATAGCTCTCACTTATTTAAA”, for which, under setting [3], the “cleaved RNA product abundance” value turned out to be 0.176.

Take “ACAGACGAAGGAGCCGCAAAGAAGTTATTAACGGATGAATAATCCTTCAATATAAATATCTCTCACTTATTTAAA”: the “cleaved RNA product abundance” value under setting [3] worked out at 0.223.

On to “ACAGACGAAGGAGCCGCAAAGAAGTTATTAAAGGATGAATAATCCCTCGATATAAATATCTCTCACTTATTTAAA”, for which the “cleaved RNA product abundance” value is, setting by setting: under setting [1], 0.0861; under setting [3], 0.0487.

Consider “ACAGACGAAGGAGCCGCAAAGAAGTTATTAAGGGATGAATAATACTTCAATATAAATATCTCTCACTTATTTAAA”, for which the “cleaved RNA product abundance” value runs as follows: under setting [1], 0.094; under setting [3], 0.111.

For the sequence “ACAGACGAAGGAGCCGCTAAGAAGTTATTAAGGGATGAATAATCCATCAATATAAATATCTCTCACTTATTTAAA”, under setting [3], the “cleaved RNA product abundance” value turned out to be 0.186.

Turning to “ACAGACGAAGGAGCCGCAAAGAAGTTATTAAGGGATGAATTATCTCTCAATATAAATATCTCTCACTTATTTAAA”, the “cleaved RNA product abundance” value by setting is: under setting [1], 0.318; under setting [3], 0.37.

Turning to “ACAGACGAAGGAGCCGCAAAGAAGTTATTATGTGATGAATAATCCCTCAATATAAATATCTCTCACTTATTTAAA”, the “cleaved RNA product abundance” value under setting [3] amounted to 0.131.

Turning to “ACAGACGAAGGAGCCGCAAAGAAGTTCTTAAGGGATGAATAATCCCTCAAAATAAATATCTCTCACTTATTTAAA”, the “cleaved RNA product abundance” value under setting [3] was 0.182.

For “ACAGACGAAGGAGCCGCAAAGAAGTTATTAAGAGATGAATAATCGCTCAATATAAATATCTCTCACTTATTTAAA”, under setting [3], the “cleaved RNA product abundance” value stood at 0.0997.

Take “ACAGACGAAGGAGCCGCAAAGAAGTTATTAAGGGATTAATAATCACTCAATATAAATATCTCTCACTTATTTAAA”: under setting [3], the “cleaved RNA product abundance” value was found to be 0.129.
